# Data reported in US6160106.
# Target: Fas/APO-1 (human) (UniProt P25445)
substance,measurement,value
agonistic anti-APO-1 monoclonal antibody,"cell death of HeLa cells (rounding up and detachment, neutral red dye uptake)",70%
